What was measured:
[1] = target: human GLT25D1/COLGALT1 (wild type) (human) (UniProt Q8NBJ5); assay: SEC-SAXS
[2] = target: human GLT25D1/COLGALT1 (wild type) (human) (UniProt Q8NBJ5); assay: SEC-MALS
[3] = target: human GLT25D1/COLGALT1 (wild type) (human) (UniProt Q8NBJ5); assay: mass photometry

Measured: stoichiometry N

human GLT25D1/COLGALT1 (wild type) (from UniProt Q8NBJ5 30-618) (enzyme)
2: all assays above

Reference: publication PMC12003778
